The record followed here is US10801046B2, “Methods and materials for biosynthesizing multifunctional, multivariate molecules via carbon chain modification” (INVISTA NORTH AMERICA S.A.R.L., priority 2016, dated 2020).

The nature of assay [1]: Carboxylate reductase activity, 7-hydroxyheptanoate to 7-hydroxyheptanal, NADPH consumption at 340 nm. As to conditions: enhanced by gene product of sfp, 20 min, against empty vector control, FIG. 44. Type of assay: biochemical. The method, then: A sequence encoding a His-tag was added to the genes from Mycobacterium marinum, Mycobacterium smegmatis, Segniliparus rugosus, Mycobacterium smegmatis, Mycobacterium massiliense, and Segniliparus rotundus that encode the carboxylate reductases of SEQ ID NOs: 25 (GenBank Accession No. ACC40567.1), 27 (GenBank Accession No. ABK75684.1), 29 (GenBank Accession No. ABK71854.1), 31 (GenBank Accession No. EFV11917.1), 37 (GenBank Accession No. EIV11143.1), and 38 (GenBank Accession No. ADG98140.1) such that N-terminal HIS tagged carboxylate reductases could be produced. Each of the modified genes was cloned into a pET Duet expression vector alongside a sfp gene encoding a His-tagged phosphopantetheine transferase from Bacillus subtilis, both under control of the T7 promoter.
Each expression vector was transformed into a BL21[DE3] E. coli host and the resulting recombinant E. coli strains were cultivated at 37° C. in a 250 mL shake flask culture containing 50 mL LB media and antibiotic selection pressure, with shaking at 230 rpm. Each culture was induced overnight at 37° C. using an auto-induction media.
The pellet from each induced shake flask culture was harvested via centrifugation. Each pellet was resuspended and lysed via sonication. The cell debris was separated from the supernatant via centrifugation. The carboxylate reductases and phosphopantetheine transferase were purified from the supernatant using Ni-affinity chromatography, diluted 10-fold into 50 mM HEPES buffer (pH=7.5) and concentrated via ultrafiltration.
Enzyme activity (i.e., 7-hydroxyheptanoate to 7-hydroxyheptanal) assays were performed in triplicate in a buffer composed of a final concentration of 50 mM HEPES buffer (pH=7.5), 2 mM […], 10 mM MgCl2, 1 mM ATP, and 1 mM NADPH. Each enzyme activity assay reaction was initiated by adding purified carboxylate reductase and phosphopantetheine transferase or the empty vector control to the assay buffer containing the 7-hydroxyheptanoate and then incubated at room temperature for 20 min. The consumption of NADPH was monitored by absorbance at 340 nm.

The nature of assay [2]: Carboxylate reductase activity, heptanedioate to 7-oxoheptanoate, NADPH consumption at 340 nm. Type of assay: biochemical. As to conditions: enhanced by gene product of sfp, 2 mM substrate, 20 min, against empty vector control, FIG. 43. The method, then:
A sequence encoding a HIS-tag was added to the genes from Segniliparus rugosus and Segniliparus rotundus that encode the carboxylate reductases of SEQ ID NOs: 31 (GenBank Accession No. EFV11917.1) and 38 (GenBank Accession No. ADG98140.1), respectively, such that N-terminal HIS tagged carboxylate reductases could be produced. Each of the modified genes was cloned into a pET Duet expression vector along with a sfp gene encoding a HIS-tagged phosphopantetheine transferase from Bacillus subtilis, both under the T7 promoter. Each expression vector was transformed into a BL21[DE3] E. coli host and the resulting recombinant E. coli strains were cultivated at 37° C. in a 250 mL shake flask culture containing 50 mL LB media and antibiotic selection pressure, with shaking at 230 rpm. Each culture was induced overnight at 37° C. using an auto-induction media.
The pellet from each induced shake flask culture was harvested via centrifugation. Each pellet was resuspended and lysed via sonication, and the cell debris was separated from the supernatant via centrifugation. […]
Enzyme activity assays (i.e., from heptanedioate to 7-oxoheptanoate) were performed in triplicate in a buffer composed of a final concentration of 50 mM HEPES buffer (pH=7.5), 2 mM heptanedioate, 10 mM MgCl2, 1 mM ATP, and 1 mM NADPH. […] The consumption of NADPH was monitored by absorbance at 340 nm.

B1: SEQ ID NO: 31: Segniliparus rugosus carboxylate reductase (protein)
chain: MGDGEERAKRFFQRIGELSATDPQFAAAAPDPAVVEAVSDPSLSFTRYLDTLMRGYAERPALAHRVGAGYETISYGELWARVGAIAAAWQADGLAPGDFVATVGFTSPDYVAVDLAAARSGLVSVPLQAGASLAQLVGILEETEPKVLAASASSLEGAVACALAAPSVQRLVVFDLRGPDASESAADERRGALADAEEQLARAGRAVVVETLADLAARGEALPEAPLFEPAEGEDPLALLIYTSGSTGAPKGAMYSQRLVSQLWGRTPVVPGMPNISLHYMPLSHSYGRAVLAGALSAGGTAHFTANSDLSTLFEDIALARPTFLALVPRVCEMLFQESQRGQDVAELRERVLGGRLLVAVCGSAPLSPEMRAFMEEVLGFPLLDGYGSTEALGVMRNGIIQRPPVIDYKLVDVPELGYRTTDKPYPRGELCIRSTSLISGYYKRPEITAEVFDAQGYYKTGDVMAEIAPDHLVYVDRSKNVLKLSQGEFVAVAKLEAAYGTSPYVKQIFVYGNSERSFLLAVVVPNAEVLGARDQEEAKPLIAASLQKIAKEAGLQSYEVPRDFLIETEPFTTQNGLLSEVGKLLRPKLKARYGEALEARYDEIAHGQADELRALRDGAGQRPVVETVVRAAVAISGSEGAEVGPEANFADLGGDSLSALSLANLLHDVFEVEVPVRIIIGPTASLAGIAKHIEAERAGASAPTAASVHGAGATRIRASELTLEKFLPEDLLAAAKGLPAADQVRTVLLTGANGWLGRFLALEQLERLARSGQDGGKLICLVRGKDAAAARRRIEETLGTDPALAARFAELAEGRLEVVPGDVGEPKFGLDDAAWDRLAEEVDVIVHPAALVNHVLPYHQLFGPNVVGTAEIIRLAITAKRKPVTYLSTVAVAAGVEPSSFEEDGDIRAVVPERPLGDGYANGYGNSKWAGEVLLREAHELVGLPVAVFRSDMILAHTRYTGQLNVPDQFTRLVLSLLATGIAPKSFYQQGAAGERQRAHYDGIPVDFTAEAITTLGAEPSWFDGGAGFRSFDVFNPHHDGVGLDEFVDWLIEAGHPISRIDDHKEWFARFETAVRGLPEAQRQHSLLPLLRAYSFPHPPVDGSVYPTGKFQGAVKAAQVGSDHDVPHLGKALIVKYADDLKALGLL
modifications: Segniliparus rugosus ATCC BAA-974
notes: Segniliparus rugosus carboxylate reductase
Turning to B1, the “acceptance of 7-hydroxyheptanoate as substrate, forming 7-hydroxyheptanal” value in assay [1] was “accepted 7-hydroxyheptanoate as substrate”. The “acceptance of heptanedioate as substrate, forming 7-oxoheptanoate” value in assay [2] is listed as “accepted heptanedioate as substrate”.
